# Source: the domain aggregation screens of Martell et al. (2025)
# Experiment: soluble fraction after stress (log2 fold change); higher = more stays soluble; pooled small domains, quantitative proteomics
# Conditions: stress: 50 degC
# Procedure, shortened: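 After stress at 50°C, the amount of each protein still soluble was measured. This was done on pooled custom libraries of small protein domains, using high-throughput quantitative proteomics. The figure given is a base-two log fold change and stands for aggregation propensity, with higher values meaning more protein stays in solution.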
row,Sequence,soluble fraction (log2)
1,HMSDAGMNQIGDMFRAPDLMAKLAMNPATREYVSQPDFLAMMEEVKRNPSALNNHLRDPRMMNVLSVAM,-0.115
2,HMSDAPLLSIRSLAVAFDGTRVVDGVSFDVARGEVVALVGESGSGKTVTGLSLLDLVPPPGRRVGGEV,0.0423
3,HMSDDAVVRMRVPEDALGLSLRETDFRQRFGVYVLAIETRDGKLLAPPDPQRPLGKDDVLVVIQKR,-0.138
4,HMSDDLLTGLDAYSRGDWTTATASFERVLTTADPNNRTEALYWLVMSETSAQNYQRALNYANTFL,-0.688
5,HMSDDSTIVELLASSLRRDIAFGTLLPDQKLKLNELRTRYGGSIHSMRETLRILSAEGLVEATAQRGFRVT,-0.0813
6,HMSDEIQLQFIQISIFKDHPWADMQIKDMNIIPDLLIVMILRDGERIIPNGNTRIMPGDMVIITAMSANT,-2.89
7,HMSDESALIAAIEKAIAAQPETAEKVRNGHLPAAGALIGSVMKETKGQADAARVRELLLGLLGQ,0.139
8,HMSDESRAEIVSSAKRLFQQYGYKKTTVSDIAKAMGKVKSAIYYYFPDKESLLRAVIDEEVG,-0.0483
9,HMSDFEASDPALLREGMRVQHLNFGKGTVITIEGAGANKKASVAFDGVGTKQLMLRFARLKIIYE,-0.146
10,HMSDFKDIILKLRNEQGFTQEKLADVLGTSKSTVGMWEMGVRFPSKELYEAIADYFNVDIDYLYGRTDIR,-0.966
11,HMSDGYETLVNMAKPFLNNSKQITENDITDAVNTVSVMLKKRYDMTDEDIRKAVSELLHFYA,-0.057
12,HMSDIDHIAGRRIRQARLNAGMTLETLASQAGISKALLSKIENSKVSSPLATFSKISKVLGVPLSDLLKE,-0.056
13,HMSDILALMPGTIKQILVAPGDSVKRGQTVIIMESMKMELTIAAHRDGVVKRIPVEQGGQVEKGMRLLELE,0.256
14,HMSDIPEGYMSRVQLGDEWGIHLATFDKAVIAVKEKLGTVVFIDKSNNTTAGYSPEQQTIIYDWLAEN,-1.82
15,HMSDKNVYGKYKNVFLSDEEFSELKQFYPNDWSDRIETLSEGIELKGYKYKNYLLAIKKWAEYEGQKAD,-0.0354
16,HMSDKPIFIDTAGIAALSAIGFSKYQATIIFNYIKKGGAIYTVKDLAKIYSIDQKTIDLTQSKIIFS,-0.0111
17,HMSDKPRYYINGNTLFISDKSVKKVLFSDLSGRSILHTTETAINIATFRGAHILTVIYTDGSTKSEVIF,-1.29
18,HMSDLLYAHPTEKGFQLVNVTQKVVMVILKTAAPNVYTVKGKNAIVFKEGNSWFYSENHNKKLLNIK,-1.13
19,HMSDLQTGDINQDGTVDEKDLSLLHSYNLELIKTISNAADLNEDGVINGLDEAYLKRLFLQNSDP,-0.0614
20,HMSDLTEVIVKFSGDIQPIRQDLDAQVEILLKGYAIITLSPNKIGRLYSYPQIESIEIPKNLYI,-1.26
21,HMSDPASLQRRLMSDPELTARILDSPFTRSLLDDPNLLRQMVNANPQLRRAMDANPQLRHAL,-0.21
22,HMSDPEAFIRQTVAAAEPEGIALSVLGKRVRGKFRTFKLRDLGYAQFRPYLGDLDGIKVEQRDGQSYARLD,-0.795
23,HMSDPSRKADFIAALSSLGGSAGNGKLREQLGWDEPTYDAVKQTLLDEGAITNGRGRGGSVALAG,≥ 0.62
24,HMSDPTDRLVLEAALKALGEEERQVVLLHAASGLKHREIARDLGLPLSTVLSRYSRALKKLQRYLTEEGVH,-0.77
25,HMSDPVDDLLLRISQQAGVARGQLVAELNMLVQDRFGGNLRHEAAAVLMAKRYGIEFRDLLPALREHLVKN,-0.00206
26,HMSDPVKQVAMRILDLREISDYTVDKMAEVLNVPVEEYRKYESGEVDMPISFLVKIGEVFHVDMTELLTG,-0.219
27,HMSDQTYVKDPETGEIFRVHKRVWETGEFWRDPVWGNILGGVERGSELERLLREEGWRPLQQSLEGFPEQ,-0.104
28,HMSDRESYGRYRNVSLTLSEYESLKNEYPLYADKYIERLSEYMETAGKHYNNHYATILSWLSKDIK,-0.487

row,Sequence,soluble fraction (log2)
1,HMSDSGLPLPRFVSLGDDRVNARAGPGFRFPINWVYLRKNFPVEVIDEFGHWRRIKDIDGIEGWIHLSML,-0.775
2,HMSDTSELESIIAQIIEDNPKSIEDIGAGNQKAYGFLTGQVMKATKGQANPQVANKIIRELVARKLE,0.575
3,HMSDTVDITKLGIAGKTKEAAEALLKENGFSVESKEENSDTIEKGKVISYSPTKPKNGDRITLIVSSGKK,0.0915
4,HMSEDTYNTLTKGTRVYNGVDYGAKYGYNPLYYFLNYNDLRIAYGADPAKLVEHYALFGIKENRVANRQIT,-0.098
5,HMSEEELETSGLVKRSAKGNLYDIFRHRVMVPIIDVRGAIIAFGGRVLDDSKPKYINSPETMVY,0.0208
6,HMSEEQLKAFLEKVQGDTSLQEKLKAAADANAVVEIAKEAGFSISADDLKNAQSELSEEELE,-0.0697
7,HMSEEVDVPDLVGMQLEEAEKSLEPLGLKLKIAKEIPNSEFEKGKIVDQKTKAGEKVKTGYTIEVTVSSG,-0.267
8,HMSEFAYPISLNGKTKFNLALSLALTKEEIEKEVLANADVQKFLNGQTPKKLIVVPGKIVNVV,-0.322
9,HMSEGEMSQWIIAQAKQQGGGFQPDAARLLGSYVGNNTLRARQEIDKLLTYVGPSRVVTPEDVVLLTA,-0.0143
10,HMSEHKFIVPEEFNLKRLDQTVAAQFEKISRTKISKIIKSSLLKVNDKVVTDQSIKIKQDDVITFTEIKDQ,0.0288
11,HMSEKRLHLVVDESDVNTRIDKYIADELDGYSRSFIQKLIKDNNVLVNGRAVKPNYNIGISDNIDIVLPKL,-0.00587
12,HMSELIDSLTEAVRSAPDAVPLRLHLAELLLADGQRDRAFAQLGQVLAKDPQNARALEMLGVGS,-0.0386
13,HMSELSEVIEKTFEELPEELKLIVKLREIDDLSYDEISNKIGIPIGTVRSRLHRAREILINIIKN,-1.55
14,HMSELSGSQLKAIREEKHIPLEQVASATRIRLSLLEALEMDEYAELGSRTQARGFLKLYADFLGVPFEA,0.0345
15,HMSEMDNMEWVREQYFQNMIYEIGEWVRDKKTGIVGEVVKRGTNYVTVVQEDFSLHKIWLEDLETTEK,-0.821
16,HMSEMLPFDEARRQFERDYLVQLLKLTSGNVSQAARLARRNRTDFYALLGRHQLEPASFKPE,-0.298
17,HMSEMVIPEDFLAALETNPQAKAFYATLNRQNQYAVYHRLQTAKRPETRAKRIADFVAQLAAGKRF,-0.355
18,HMSEPHPPFQVVAQFPYKSEYEDDLNFEKDQIITVTSIEDDEWYYGDFKNKGGELVEGIFPKSFVTVK,-0.403
19,HMSEPQYKVLFSNLDDRDGGAIVTALGAMNVPYKYNDTGTALLVPADRVYDARLQLASQGLPRG,0.18
20,HMSEPTVVAINETLTSERLDRYLTTQLPHISRGGIQRLLRKGNILVDGKPAKPTQHPVAGQTVEITWPIPK,-0.359
21,HMSEQMQVGELVFQLHRKAIKNLHINVLPPDGFVRVSAPQAMTETAIRTAVISRLPWIRRQQQAFAAQ,-2.12
22,HMSERVVEIDPSQLRPGLFIRLPSGWMNHPFLFNQFRINSAEQVEIIQKLGLKTVQYLPERSSTQALPRA,-0.499
23,HMSESEDFQNRWRPWRSLLDDETPVVREALVDQLKLFPEEGRLFLQQMSEEDDPISARHAFELIKSLGW,-0.132
24,HMSETAVTYNEDFEADGSLRPNEQAVLDAFTGVLKLTVSELEKKTGLRNVVPVVASLMAKGAVEVSEELK,0.0501
25,HMSETEWGEIYRKVMAAGLIPARSVRERLLALPSIEPLLQAAEAAGSKGMLDETLLDSLLSKT,0.134
26,HMSETLESYTTRLKQLEEIADSFQGVDKTFAIQAGREIRVMVVPEQISDDDMILLARDISNQIEENLDY,-0.122
27,HMSEVIYVAEDNVGQRIDVFLVNKLVDASRANIQKNIVDGVILVNNKNVKANYKLRLGDVVEIRTQ,0.156
